Laboratory results reported in PMC3222648, “Inotropic Action of the Puberty Hormone Kisspeptin in Rat, Mouse and Human: Cardiovascular Distribution and Characteristics of the Kisspeptin Receptor” (PLoS ONE, 2011).
“And” between values parts separate entries of the source, which are not always exact repeats. Equal values may be shown once. Read-outs that look alike come from different tables or passages of the source. Values belong to the molecule of their own block, whether it stands above or below them. Bridges are numbered along the chain shown (N, C = ends). Where no end group is shown, it is not given here.

What was measured:
kisspeptin receptor [1] = biological target: T1, kisspeptin receptor (Homo sapiens, UniProt Q969F8); assay: Inotropic activity in human paced atrial strips
T1 construct: cryostat-cut sections of human (15 µm) or rat (10 µm) heart; from tissue; host or cells: human right atria (control, dilated cardiomyopathy, ischaemic heart disease), cryostat sections
Method: (§1) Paired rat or mouse atria, or 4 mm strips of human atrial appendage, were mounted in 10 ml organ baths containing oxygenated Krebs solution at 37°C as described previously. […] Experiments were terminated by the addition of 6.7 mM CaCl2 (final bath concentration 8.95 mM) and responses expressed as a % of this CaCl2 maximum. Radioligand binding study data were analyzed using the iterative, non-linear curve fitting programs EBDA and LIGAND in the KELL package (Biosoft, Cambridge, UK). Pooled KD, BMAX and Hill slopes (nH) were expressed as mean±SEM and normalized to protein concentrations. […] Where appropriate, values were compared by one-way analysis of variance (ANOVA). In all cases P<0.05 was considered statistically significant and n-values were the number of animals or patients from which data were obtained.

kisspeptin receptor [2] = biological target: T2, kisspeptin receptor (Rattus norvegicus, UniProt Q924U1); assay: Inotropic activity in rat paced paired atria; parameters: Paired rat or mouse atria; from tissue; host or cells: rat paired atria; conditions: read-out: EMAX (maximum positive inotropic response)
Method: as §1

[3] = system: endothelium-denuded rat aortic rings; assay: Vasoconstrictor activity in endothelium-denuded rat aorta; conditions: mean ± SEM, ET-1 n = 7, KP-10 tissues from 4 animals, KP-54 tissues from 3 animals
Method: Rat thoracic aorta was cleaned of connective tissue and cut into 4 mm rings and the endothelial layer removed by gentle rubbing. Tissues were set to a basal tension at which the maximum response to 100 mM KCl was generated and subsequent responses to kisspeptins were expressed as % of this KCl response. Aortic rings were then contracted with 10 µM phenylephrine and 1 µM ACh was added; a reduction in the phenylephrine response of <10% was taken as evidence of removal of endothelium. […] Experiments were terminated by the addition of 100 mM KCl and agonist responses were expressed as a % of this KCl maximum.
Radioligand binding study data were analyzed using the iterative, non-linear curve fitting programs EBDA and LIGAND in the KELL package (Biosoft, Cambridge, UK). Pooled KD, BMAX and Hill slopes (nH) were expressed as mean±SEM and normalized to protein concentrations. In vitro pharmacology data agonist responses were expressed as %CaCl2 response in the paced atrial tissues and %KCl in the vasoconstrictor studies and data were fitted to a four parameter logistic equation using an iterative curve-fitting program (FigSys, Biosoft, Cambridge, UK) to obtain values for potency (pD2: the negative logarithm to the base 10 of the EC50) and maximum response (EMAX: %CaCl2 or %KCl, respectively) expressed as mean±SEM. Where appropriate, values were compared by one-way analysis of variance (ANOVA). In all cases P<0.05 was considered statistically significant and n-values were the number of animals or patients from which data were obtained.

kisspeptin receptor [4] = conditions: ref [3]; cited from earlier work
Source text: Kisspeptin, or KP-54, is a member of a larger group of peptides, the RF amides, named after their shared C-terminal amino acids. RF amides have wide ranging roles in reproduction, feeding, blood pressure regulation and pain modulation with kisspeptins most closely implicated in reproduction and energy balance, [23]–[27]. KP-54 is cleaved from a single precursor, encoded by the KISS1 gene, and smaller fragments of kisspeptin have been identified that are cleaved from KP-54 by unidentified proteases.

kisspeptin receptor [5] = biological target: T1, kisspeptin receptor; assay: [^125I]KP-14 receptor autoradiography, human cardiovascular tissue sections; type: binding; conditions: for [^125I]KP-14 specific binding: 0.2 nM [^125I]KP-14, 2 h, mean ± SEM
Method: (§2) For receptor autoradiography, cryostat-cut sections of human (15 µm) or rat (10 µm) heart were pre-incubated with phosphate binding buffer (mM: NaH2PO4, 50; NaCl, 100; EDTA, 5; MgCl2, 5; protease inhibitor cocktail, 1; pH 7.4) before incubation for 2 h with 0.2 nM [^125I]KP-14 [31]. […] Equilibrium was broken by washing in 50 mM Tris-HCl buffer, pH 7.4, 4°C before air-drying and apposition to radiation-sensitive film (Kodak Biomax MR) and determination of specific binding by computer-assisted densitometry using the Quantimet 970 system (Leica Microsystems, Bucks, UK).

kisspeptin receptor [6] = biological target: T2, kisspeptin receptor; assay: [^125I]KP-14 receptor autoradiography, rat cardiovascular tissue sections; type: binding; conditions: for [^125I]KP-14 specific binding: 0.2 nM [^125I]KP-14, 2 h, pH 7.4, non-specific: 1 µM KP-10, mean ± SEM
Method: as §2

kisspeptin receptor [7] = biological target: T1, kisspeptin receptor; assay: [^125I]KP-14 saturation binding, human right atria sections; conditions: for BMAX (receptor density) / nH (Hill coefficient): mean ± SEM, n = 3
Method: (§3) [^125I]KP-14 binding was detected using a gamma counter to measure disintegrations per minute (dpm) and total protein content was calculated using the Biorad 96-well microtiter plate system. Radioligand binding study data were analyzed using the iterative, non-linear curve fitting programs EBDA and LIGAND in the KELL package (Biosoft, Cambridge, UK). Pooled KD, BMAX and Hill slopes (nH) were expressed as mean±SEM and normalized to protein concentrations. […] Where appropriate, values were compared by one-way analysis of variance (ANOVA). In all cases P<0.05 was considered statistically significant and n-values were the number of animals or patients from which data were obtained.

kisspeptin receptor [8] = biological target: T2, kisspeptin receptor; assay: [^125I]KP-14 saturation binding, rat heart sections
Method: as §3

[9] = cited from earlier work
Source text: Our discovery that kisspeptins are positive inotropic agents in human and rodent heart is the first report of such activity. […] Activation of these signaling pathways would be consistent with function as both an inotropic a ...

native human tissue = conditions: ref [40]; cited from earlier work
human heart = conditions: ref [39]; cited from earlier work
Source text: The RF-amide peptide family, which also includes prolactin releasing peptide, are known to have roles in cardiovascular regulation, both centrally and peripherally, [35]. However, to date mRNA studies of kisspeptin receptor distribution in whole heart samples have reported low but varying mRNA expression by northern blot, expression was not detected by PCR [3], [4], [32] except by Sawyer and colleagues, who were also able to detect mRNA encoding murine kisspeptin, albeit at very low copy number. We now report for the first time, the expression of kisspeptin a ...

KP-14 = biological target: T3, KP-14 (Homo sapiens, UniProt Q15726, ends and bridges not checked; also: 125I-labelled); assay: saturation radioligand binding, heart sections
T3 chain: DLPNYNWNSFGLRF

[10] = human right atria, dilated cardiomyopathy (DCM)
[11] = human right atria, ischaemic heart disease (IHD)

T1 sequence (Q969F8 whole entry): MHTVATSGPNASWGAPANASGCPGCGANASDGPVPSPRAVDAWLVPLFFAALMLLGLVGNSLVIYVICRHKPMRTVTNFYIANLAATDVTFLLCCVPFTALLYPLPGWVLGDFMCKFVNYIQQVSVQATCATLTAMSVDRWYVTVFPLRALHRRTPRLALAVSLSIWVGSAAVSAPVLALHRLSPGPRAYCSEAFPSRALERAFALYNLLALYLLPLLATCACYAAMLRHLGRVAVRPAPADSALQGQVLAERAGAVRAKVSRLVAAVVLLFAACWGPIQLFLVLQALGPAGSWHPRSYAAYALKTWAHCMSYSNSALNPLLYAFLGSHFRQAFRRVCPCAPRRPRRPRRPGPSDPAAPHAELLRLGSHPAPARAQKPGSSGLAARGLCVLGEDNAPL

Molecule: CC(C)C[C@H](NC(=O)CNC(=O)[C@H](Cc1ccccc1)NC(=O)[C@H](CO)NC(=O)[C@H](CC(N)=O)NC(=O)[C@H](Cc1c[nH]c2ccccc12)NC(=O)[C@H](CC(N)=O)NC(=O)[C@@H](N)Cc1ccc(O)cc1)C(=O)N[C@@H](CCCNC(=N)N)C(=O)N[C@@H](Cc1ccccc1)C(N)=O [KP-10]
EC50 (kisspeptin receptor [1]): 0.102 nM
Emax (kisspeptin receptor [1]; % of CaCl2 maximum (8.95 mM final), human atrial strips, mean ± SEM, n = 5, read-out: EMAX (maximum positive inotropic response)): 59 ± 10%
Emax (kisspeptin receptor [2]): 31 ± 5%

Molecule: ET-1: ET-1 (human) from Peptide Institute, control vasoconstrictor (CSCSSLMDKECVYFCHLDIIW; disulfide 1-15, 3-11; ends not checked; UniProt P05305 53-73, looked up)
EMAX (maximum vasoconstrictor response) ([3]; % of 100 mM KCl maximum, endothelium-denuded rat aorta): 99±1 % KCl
pD2 (vasoconstriction) ([3]; endothelium-denuded rat thoracic aortic rings, KP-10, KP-54 10^−12–3×10^−9 M, ET-1 10^−10–3×10^−7 M): 8.13±0.11

Molecule: KP-13: smaller fragment of kisspeptin cleaved from KP-54 (LPNYNWNSFGLRF; ends and bridges not checked; UniProt Q15726 109-121, looked up)
biological activity of fragment (kisspeptin receptor [4]): retain biological activity

Molecule: KP-14: smaller fragment of kisspeptin cleaved from KP-54; custom synthesised by Severn Biotech (DLPNYNWNSFGLRF-NH2; ends and bridges not checked; UniProt Q15726 108-121, looked up)
biological activity of fragment (kisspeptin receptor [4]): retain biological activity

nH (Hill coefficient) (kisspeptin receptor [7]; control human right atria): 0.82±0.10
Hill slopes (in words) (kisspeptin receptor [7]; human right atria): close to unity
BMAX (receptor density) (kisspeptin receptor [7]; [11]): 13.5±7.0 fmol mg^−1 protein
nH (Hill coefficient) (kisspeptin receptor [7]; [11]): 0.94±0.03
Hill slopes (in words) (kisspeptin receptor [8]): close to unity
BMAX (kisspeptin receptor [8]; mean ± SEM, n = 6): 11 ± 2 fmol/mg
Molecule: [^125I]KP-14: radioligand (2000 Ci/mmol) prepared from unlabelled KP-14 by direct iodination using the chloramine-T method (DLPNYNWNSFGLRF; not fully specified; ends and bridges not checked; also: 125I radiolabel, site not given here; UniProt Q15726 108-121, looked up)
[^125I]KP-14 specific binding (kisspeptin receptor [5]; human aorta, pH 7.4, n = 6): 214±46 amol mm^−2
[^125I]KP-14 specific binding (kisspeptin receptor [5]; human apex, pH 7.4, n = 4): 27±6 amol mm^−2
[^125I]KP-14 specific binding (kisspeptin receptor [5]; human atrial appendage, pH 7.4, n = 4): 51±15 amol mm^−2
[^125I]KP-14 specific binding (kisspeptin receptor [5]; human interventricular septum, pH 7.4, n = 3): 29±10 amol mm^−2
[^125I]KP-14 specific binding (kisspeptin receptor [5]; human left atria, phosphate binding buffer pH 7.4, non-specific: 10 µM KP-14, n = 3): 59±16 amol mm^−2
[^125I]KP-14 specific binding (kisspeptin receptor [5]; human left ventricle, pH 7.4, n = 3): 34±8 amol mm^−2
specific binding of [^125I]KP-14 (in words) (kisspeptin receptor [5]; human myocardium, all regions, smooth muscle of human aorta and small coronary resistance vessels): observed in all regions of human and rat myocardium
[^125I]KP-14 specific binding (kisspeptin receptor [5]; human right atria, pH 7.4, n = 3): 36±7 amol mm^−2
[^125I]KP-14 specific binding (kisspeptin receptor [5]; human right ventricle, pH 7.4, n = 3): 31±7 amol mm^−2
[^125I]KP-14 specific binding (kisspeptin receptor [5]; human small resistance vessel, pH 7.4, n = 5): 4±3 amol mm^−2
[^125I]KP-14 specific binding (kisspeptin receptor [6]; rat aorta, n = 3): 21±2 amol mm^−2
[^125I]KP-14 specific binding (kisspeptin receptor [6]; rat heart, n = 5): 29±10 amol mm^−2
specific binding of [^125I]KP-14 (in words) (kisspeptin receptor [6]; rat myocardium, rat aorta smooth muscle): observed in all regions of human and rat myocardium
BMAX (receptor density) (kisspeptin receptor [7]; control human right atria): 8±5 fmol mg^−1 protein and 8.0±4.8 fmol mg^−1 protein
difference in receptor density or binding affinity (kisspeptin receptor [7]; human right atria, control vs DCM vs IHD): No significant difference in receptor density or binding affinity
BMAX (receptor density) (kisspeptin receptor [7]; [10]): 10.2±3.4 fmol mg^−1 protein
nH (Hill coefficient) (kisspeptin receptor [7]; [10]): 1.00±0.02

Molecule: apelin
pD2 (inotropic effect) ([9]; ref [44]): 9.9
BMAX (native human tissue): 3.1 fmol/mg

Molecule: endothelin
pD2 (inotropic effect) ([9]; ref [43]): 8.9

Molecule: urotensin-II: vasoactive peptide and potent inotrope in human heart (ETPDCFWKYCV; ends and bridges not checked; cysteine pairing not given here; UniProt O95399 114-124, looked up)
inotropic activity (in words) (human heart): potent inotrope in human heart

Kd (KP-14): 0.44 nM
B1: Kisspeptin receptor (protein)
chain: MAAEATLGPNVSWWAPSNASGCPGCGVNASDGPGSAPRPLDAWLVPLFFAALMLLGLVGNSLVIFVICRHKHMQTVTNFYIANLAATDVTFLLCCVPFTALLYPLPTWVLGDFMCKFVNYIQQVSVQATCATLTAMSVDRWYVTVFPLRALHRRTPRLALTVSLSIWVGSAAVSAPVLALHRLSPGPHTYCSEAFPSRALERAFALYNLLALYLLPLLATCACYGAMLRHLGRAAVRPAPTDGALQGQLLAQRAGAVRTKVSRLVAAVVLLFAACWGPIQLFLVLQALGPSGAWHPRSYAAYALKIWAHCMSYSNSALNPLLYAFLGSHFRQAFCRVCPCGPQRQRRPHASAHSDRAAPHSVPHSRAAHPVRVRTPEPGNPVRRSPSVQDEHTAPL
